Values of other authors in paper PMC10648573.
Where two headings read alike, the source gives them in different places.

Legend:
[1] = target: NGALR 1-105 (Homo sapiens) (UniProt Q8WUG5)
megalin (Homo sapiens) = megalin (Homo sapiens) (UniProt P98164)
[2] = target: NGALR 1-105 (Homo sapiens) (UniProt Q8WUG5); remark: listed apart in the source
24p3R (Homo sapiens) = 24p3R (Homo sapiens) (UniProt Q8WUG5)

UniProt P98164, sequence (P98164 26-4423): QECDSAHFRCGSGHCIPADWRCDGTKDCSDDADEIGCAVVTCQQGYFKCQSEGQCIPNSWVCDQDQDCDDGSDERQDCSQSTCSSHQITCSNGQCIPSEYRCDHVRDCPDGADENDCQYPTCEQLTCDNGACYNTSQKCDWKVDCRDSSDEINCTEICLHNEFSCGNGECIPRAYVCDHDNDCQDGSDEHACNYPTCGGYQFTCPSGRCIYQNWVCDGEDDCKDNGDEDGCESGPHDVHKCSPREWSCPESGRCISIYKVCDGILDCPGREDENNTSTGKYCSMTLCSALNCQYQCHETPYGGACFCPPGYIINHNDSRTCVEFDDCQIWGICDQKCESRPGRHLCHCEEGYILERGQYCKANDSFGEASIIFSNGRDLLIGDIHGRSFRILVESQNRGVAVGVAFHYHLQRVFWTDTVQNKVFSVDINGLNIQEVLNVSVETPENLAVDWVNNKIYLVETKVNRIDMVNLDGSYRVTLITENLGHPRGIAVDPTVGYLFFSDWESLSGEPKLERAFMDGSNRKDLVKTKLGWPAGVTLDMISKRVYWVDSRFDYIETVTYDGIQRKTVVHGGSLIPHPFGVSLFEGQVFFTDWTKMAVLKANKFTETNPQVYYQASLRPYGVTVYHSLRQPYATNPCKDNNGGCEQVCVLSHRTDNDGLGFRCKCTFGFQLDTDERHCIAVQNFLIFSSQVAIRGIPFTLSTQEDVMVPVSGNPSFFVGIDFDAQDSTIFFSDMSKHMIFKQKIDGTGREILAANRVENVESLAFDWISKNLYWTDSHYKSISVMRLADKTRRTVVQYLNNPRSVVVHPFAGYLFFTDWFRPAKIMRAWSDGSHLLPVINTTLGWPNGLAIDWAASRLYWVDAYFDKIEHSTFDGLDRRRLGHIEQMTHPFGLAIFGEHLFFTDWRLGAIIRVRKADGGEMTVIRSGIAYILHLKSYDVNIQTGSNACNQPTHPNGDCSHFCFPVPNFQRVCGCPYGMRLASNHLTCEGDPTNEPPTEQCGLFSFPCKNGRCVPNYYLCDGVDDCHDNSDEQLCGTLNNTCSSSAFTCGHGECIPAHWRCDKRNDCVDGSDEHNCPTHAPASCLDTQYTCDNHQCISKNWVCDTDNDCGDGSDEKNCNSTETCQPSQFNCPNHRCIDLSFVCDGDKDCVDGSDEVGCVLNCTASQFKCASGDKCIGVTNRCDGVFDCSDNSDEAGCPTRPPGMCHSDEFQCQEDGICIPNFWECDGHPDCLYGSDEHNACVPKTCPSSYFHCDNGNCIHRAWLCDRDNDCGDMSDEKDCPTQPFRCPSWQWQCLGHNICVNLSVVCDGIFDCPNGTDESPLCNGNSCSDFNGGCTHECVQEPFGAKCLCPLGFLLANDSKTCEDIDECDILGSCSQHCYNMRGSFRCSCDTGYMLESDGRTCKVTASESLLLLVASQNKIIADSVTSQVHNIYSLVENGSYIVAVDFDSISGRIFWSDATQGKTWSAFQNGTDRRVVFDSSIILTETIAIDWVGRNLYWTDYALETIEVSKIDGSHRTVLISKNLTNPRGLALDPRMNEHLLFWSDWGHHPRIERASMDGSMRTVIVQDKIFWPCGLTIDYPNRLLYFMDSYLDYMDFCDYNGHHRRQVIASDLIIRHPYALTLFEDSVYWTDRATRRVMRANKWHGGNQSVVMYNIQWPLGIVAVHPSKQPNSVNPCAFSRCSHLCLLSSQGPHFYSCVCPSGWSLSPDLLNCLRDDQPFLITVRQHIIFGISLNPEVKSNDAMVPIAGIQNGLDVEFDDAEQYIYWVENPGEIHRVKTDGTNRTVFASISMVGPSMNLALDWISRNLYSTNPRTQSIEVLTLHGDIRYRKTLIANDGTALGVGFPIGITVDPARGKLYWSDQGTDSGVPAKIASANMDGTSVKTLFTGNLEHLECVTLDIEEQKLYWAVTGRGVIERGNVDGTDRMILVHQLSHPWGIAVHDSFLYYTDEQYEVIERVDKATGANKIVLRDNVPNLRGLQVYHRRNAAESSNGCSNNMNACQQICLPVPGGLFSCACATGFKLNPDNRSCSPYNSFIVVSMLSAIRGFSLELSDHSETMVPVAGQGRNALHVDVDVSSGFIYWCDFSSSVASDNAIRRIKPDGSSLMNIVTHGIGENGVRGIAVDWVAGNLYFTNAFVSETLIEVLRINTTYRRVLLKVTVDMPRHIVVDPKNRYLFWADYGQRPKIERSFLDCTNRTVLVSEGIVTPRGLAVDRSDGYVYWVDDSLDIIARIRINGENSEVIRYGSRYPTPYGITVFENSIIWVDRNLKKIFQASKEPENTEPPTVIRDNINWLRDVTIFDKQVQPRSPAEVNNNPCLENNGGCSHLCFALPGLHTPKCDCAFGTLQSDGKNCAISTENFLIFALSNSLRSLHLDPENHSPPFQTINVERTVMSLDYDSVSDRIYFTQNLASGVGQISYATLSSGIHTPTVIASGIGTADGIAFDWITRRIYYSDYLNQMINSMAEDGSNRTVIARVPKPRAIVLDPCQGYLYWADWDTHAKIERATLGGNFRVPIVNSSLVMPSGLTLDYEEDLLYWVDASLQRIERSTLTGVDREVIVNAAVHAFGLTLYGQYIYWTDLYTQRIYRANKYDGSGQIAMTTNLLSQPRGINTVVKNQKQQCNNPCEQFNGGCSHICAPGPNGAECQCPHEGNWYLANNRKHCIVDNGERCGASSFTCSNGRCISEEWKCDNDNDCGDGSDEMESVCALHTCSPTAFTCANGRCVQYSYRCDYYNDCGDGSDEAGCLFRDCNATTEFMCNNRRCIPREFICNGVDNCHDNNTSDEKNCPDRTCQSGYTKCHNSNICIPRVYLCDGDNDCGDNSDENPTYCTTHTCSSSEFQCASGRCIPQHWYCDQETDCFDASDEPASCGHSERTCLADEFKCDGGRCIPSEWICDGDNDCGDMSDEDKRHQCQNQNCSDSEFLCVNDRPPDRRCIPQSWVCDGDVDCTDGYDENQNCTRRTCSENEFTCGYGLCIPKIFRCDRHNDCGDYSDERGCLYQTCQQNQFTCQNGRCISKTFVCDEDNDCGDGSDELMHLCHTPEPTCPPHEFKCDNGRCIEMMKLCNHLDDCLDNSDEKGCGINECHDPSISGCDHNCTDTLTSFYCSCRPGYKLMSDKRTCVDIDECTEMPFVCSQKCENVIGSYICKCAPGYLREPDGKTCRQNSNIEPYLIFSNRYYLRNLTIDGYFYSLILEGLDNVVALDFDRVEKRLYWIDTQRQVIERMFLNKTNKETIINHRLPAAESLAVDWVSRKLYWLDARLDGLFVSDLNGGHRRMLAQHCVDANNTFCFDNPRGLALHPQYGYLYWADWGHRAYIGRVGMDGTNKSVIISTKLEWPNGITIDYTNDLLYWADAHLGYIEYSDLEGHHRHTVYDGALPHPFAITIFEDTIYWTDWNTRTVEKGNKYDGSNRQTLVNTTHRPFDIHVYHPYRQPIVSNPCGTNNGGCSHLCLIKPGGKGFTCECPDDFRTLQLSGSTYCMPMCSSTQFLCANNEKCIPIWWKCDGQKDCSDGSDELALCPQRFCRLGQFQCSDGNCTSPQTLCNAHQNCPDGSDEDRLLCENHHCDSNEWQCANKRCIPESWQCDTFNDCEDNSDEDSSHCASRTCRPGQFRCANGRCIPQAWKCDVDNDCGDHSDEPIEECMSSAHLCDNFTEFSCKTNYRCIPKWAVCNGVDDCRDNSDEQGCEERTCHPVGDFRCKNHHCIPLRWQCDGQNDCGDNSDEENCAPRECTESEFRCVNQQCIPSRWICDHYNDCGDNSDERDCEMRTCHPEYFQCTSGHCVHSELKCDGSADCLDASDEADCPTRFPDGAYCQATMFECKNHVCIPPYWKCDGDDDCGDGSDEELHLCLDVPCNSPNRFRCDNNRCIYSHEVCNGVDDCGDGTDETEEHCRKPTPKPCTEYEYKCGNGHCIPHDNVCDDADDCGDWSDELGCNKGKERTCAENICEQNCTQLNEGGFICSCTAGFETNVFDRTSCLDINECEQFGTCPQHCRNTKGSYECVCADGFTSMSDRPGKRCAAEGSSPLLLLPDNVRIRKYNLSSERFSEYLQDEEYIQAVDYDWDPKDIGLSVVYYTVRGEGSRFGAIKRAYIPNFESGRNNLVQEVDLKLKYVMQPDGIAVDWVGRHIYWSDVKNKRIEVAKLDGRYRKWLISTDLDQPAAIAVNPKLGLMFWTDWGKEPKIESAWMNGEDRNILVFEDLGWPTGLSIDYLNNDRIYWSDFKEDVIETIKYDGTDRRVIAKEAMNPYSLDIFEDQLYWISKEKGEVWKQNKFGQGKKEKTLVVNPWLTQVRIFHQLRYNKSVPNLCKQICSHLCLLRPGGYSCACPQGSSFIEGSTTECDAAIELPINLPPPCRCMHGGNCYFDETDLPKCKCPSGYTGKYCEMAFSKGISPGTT

Kd [1] [µM] | Kd (megalin (Homo sapiens)) [µM] | Kd [2] [µM] | Kd (24p3R (Homo sapiens)) [nM] | Substance
8.5 |  |  |  | Lipocalin-2 (apo) (from UniProt P80188)
 | 0.06 | 20 | 0.092 | Lipocalin-2 (from UniProt P80188)
